Measurements: patent publication US20230030529A1

Target: C4-aa^1355 monoclonal antibody
Assay: competitive C4-aa^1355 ECLIA, peptide in solution against the biotinylated coating peptide

Sequence of C4-aa^1355 monoclonal antibody (VH, as listed by the source, chain 1 of 2): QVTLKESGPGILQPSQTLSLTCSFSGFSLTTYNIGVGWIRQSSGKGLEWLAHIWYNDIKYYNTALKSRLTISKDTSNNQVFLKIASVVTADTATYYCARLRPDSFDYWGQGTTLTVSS
Sequence of C4-aa^1355 monoclonal antibody (VL, as listed by the source, chain 2 of 2): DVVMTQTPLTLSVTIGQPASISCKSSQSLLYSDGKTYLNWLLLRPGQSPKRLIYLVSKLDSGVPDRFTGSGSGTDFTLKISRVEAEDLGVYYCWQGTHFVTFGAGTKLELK

- signal left at the highest peptide concentration (% B/B0): 65%
B1: Deselection peptide 2 … (peptide)
peptide: MGNSGPTGAV
